Molecular target: T1, His-tagged canine IL-31 (interleukin 31) recombinant protein (canine)
T1 construct: Expressed in HEK293 cells, purified on a Ni column; unlabelled analyte in BLI; also called canine IL-31 recombinant protein; biotin-labeled canine IL-31 recombinant protein
Assay: BLI (Gator), biotinylated antibody on streptavidin probe, canine IL-31 as analyte

Kd: 19.3 nM
koff: 0.00203 s⁻¹
kon: 105000 M⁻¹ s⁻¹
B1: Lokivetmab (antibody, V domains shown)
VH: EVQLVESGGDLVKPGGSLRLSCVASGFTFSNYGMSWVRQAPGKGLQWVATISYGGSYTYYPDNIKGRFTISRDNAKNTLYLQMNSLRAEDTAMYYCVRGYGYDTMDYWGQGTLVTVSS
VL: EIVMTQSPASLSLSQEEKVTITCKASQSVSFAGTGLMHWYQQKPGQAPKLLIYRASNLEAGVPSRFSGSGSGTDFSFTISSLEPEDVAVYYCQQSREYPWTFGQGTKLEIKR
